Reference: paper PMC3516755

Molecular target: rGlu^1-hPg[S741A] (human)
Experiment: SPR

Substance	Kd	koff	kon
rSK_(AP53) (natural protein)	321 nM	0.00246 s⁻¹	
rSK_(NS53) (natural protein)		0.00616 s⁻¹	1.18e+06 M⁻¹ s⁻¹
rSK_(NS88.2) (natural protein)	202 nM	0.00314 s⁻¹	15500 M⁻¹ s⁻¹
rSK_(NS210) (natural protein)		0.00737 s⁻¹	302000 M⁻¹ s⁻¹
rSK_(NS223) (natural protein)	255 nM	0.00178 s⁻¹	
rSK_(NS455) (natural protein)	232 nM	0.00306 s⁻¹	13200 M⁻¹ s⁻¹
rSK_(NS931) (natural protein)		0.00467 s⁻¹	375000 M⁻¹ s⁻¹
rSK_(NZ131) (natural protein)		0.0087 s⁻¹	1.02e+06 M⁻¹ s⁻¹
